Data from patent US20220049236A1.

Key:
[1] = target: HSP70 (UniProt P0DMV8); test: ELISA, plate coated with HSP70, bound protein detected with peroxidase-conjugated anti-human antibody
[2] = target: HSP70 (UniProt P0DMV8); test: ELISA, plate coated with HSP70

Chain of HSP70 (P0DMV8 whole entry): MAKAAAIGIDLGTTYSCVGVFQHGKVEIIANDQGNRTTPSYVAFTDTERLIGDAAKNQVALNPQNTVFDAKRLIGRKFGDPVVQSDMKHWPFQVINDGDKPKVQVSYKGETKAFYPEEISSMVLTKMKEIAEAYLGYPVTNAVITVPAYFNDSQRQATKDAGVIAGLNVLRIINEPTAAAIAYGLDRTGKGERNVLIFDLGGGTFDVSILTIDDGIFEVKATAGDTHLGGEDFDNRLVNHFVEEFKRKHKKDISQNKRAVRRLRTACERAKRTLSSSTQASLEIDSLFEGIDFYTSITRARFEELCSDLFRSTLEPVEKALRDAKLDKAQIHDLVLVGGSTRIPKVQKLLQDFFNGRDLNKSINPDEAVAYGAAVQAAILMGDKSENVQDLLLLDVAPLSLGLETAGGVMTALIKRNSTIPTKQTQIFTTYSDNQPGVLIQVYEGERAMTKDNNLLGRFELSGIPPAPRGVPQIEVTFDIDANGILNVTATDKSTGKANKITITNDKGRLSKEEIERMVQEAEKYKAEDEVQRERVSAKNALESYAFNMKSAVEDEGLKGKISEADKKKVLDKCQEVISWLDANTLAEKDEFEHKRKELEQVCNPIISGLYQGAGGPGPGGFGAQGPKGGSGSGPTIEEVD

EC50 [1]: 57 nM
EC50 [2]: 41 nM
B1: Fc-LPD N346, 362, 409Q (Fc fusion)
chain: APPAAGQQQPPREPPAAPGAWRQQIQWENNGQVFSLLSLGSQYQPQRRRDPGAAVPGAAQASAQQPRTPILLIRDQRTAAARTRTAGSSGVTAGRPRPTARHWFQAGYSTSRAREAGASRAEQQTAPGEVPALSNLRPPSRVDGMVGD
